US20190300618A1 (Merck Sharp & Dohme, published 2019)
Changes are numbered by the printed parent chain.

Tests used:
Assay in all cases: flow cytometry, CHO-K1; single column;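 note: CHO-K1 cells transiently transfected with hCD27 alanine mutant constructs, anti-hCD27 antibody binding measured by flow cytometry, 30 min at 4 °C, wild-type hCD27 binding taken as 100%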
[1] = biological target: T1, W13A
T1 construct: also called hCD27 W13A
T1 receptor: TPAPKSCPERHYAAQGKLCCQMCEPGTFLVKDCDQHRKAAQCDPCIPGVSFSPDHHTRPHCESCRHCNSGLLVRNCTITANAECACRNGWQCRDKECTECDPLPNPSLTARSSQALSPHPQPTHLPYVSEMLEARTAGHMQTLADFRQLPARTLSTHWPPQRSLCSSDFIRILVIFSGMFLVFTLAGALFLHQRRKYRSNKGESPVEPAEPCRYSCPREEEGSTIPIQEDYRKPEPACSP
Method: (§1) The ability of several anti-hCD27 antibodies to bind to a series of hCD27 alanine mutants was determined using CHO-K1 cells, transiently transfected pCI-neo empty vector, pCI-neo.hCD27 and several pCI-neo.CD27Ala mutant constructs.
(§2) Detached cells were transferred to 96 wells round-bottomed well plates at approximately 1.2×10⁵ cells/well. After spinning down the cells, discarding the supernatants and re-suspending the cells in the residual volume, the primary antibodies were added and incubated for 30 minutes at 4° C. Cells were washed three times with DPBS/BSA 1%, followed by centrifugation, discarding of the supernatants and re-suspension in the residual volume. […] After washing once, antibody binding was detected using the HTS plate reader (FACS Canto II) and FlowJo software for data analysis. Debris, dead cells and doublets were excluded from the analysis. Binding was expressed as the geometric mean of the FITC signal, relative to antibody binding to hCD27, which was set at 100%.

[2] = biological target: T2, K17A
T2 construct: also called hCD27 K17A
T2 receptor: T1 receptor with A13W, K17A
Method: as §1, §2

[3] = biological target: T3, F28A
T3 construct: also called hCD27 F28A
T3 receptor: T1 receptor with A13W, F28A
Method: as §1, §2

[4] = biological target: T4, K31A
T4 construct: also called hCD27 K31A
T4 receptor: T1 receptor with A13W, K31A
Method: as §1, §2

[5] = biological target: T5, P44A
T5 construct: also called hCD27 P44A
T5 receptor: T1 receptor with A13W, P44A
Method: as §1, §2

[6] = biological target: T6, I46A
T6 construct: also called hCD27 I46A
T6 receptor: T1 receptor with A13W, I46A
Method: as §1, §2

[7] = biological target: T7, H60A
T7 construct: also called hCD27 H60A
T7 receptor: T1 receptor with A13W, H60A
Method: as §1, §2

[8] = biological target: T8, R87A
T8 construct: also called hCD27 R87A
T8 receptor: T1 receptor with A13W, R87A
Method: as §1, §2

[9] = biological target: T9, G89A
T9 construct: also called hCD27 G89A
T9 receptor: T1 receptor with A13W, G89A
Method: as §1, §2

[10] = biological target: T10, E9A
T10 construct: also called hCD27 E9A
T10 receptor: T1 receptor with E9A, A13W
Method: as §1, §2

B1: hCD27.15-6B (humanized hCD27.15, human IgG4, Clone 6B) (antibody, V domains shown)
VH: QVQLVQSGAEVKKPGASVKVSCKASGFIIKATYMHWVRQAPGQRLEWMGRIDPANGETKYDPKFQVRVTITADTSASTAYMELSSLRSEDTAVYYCARYAWYFDVWGQGTLVTVSS
VL: DIQMTQSPSSLSASVGDRVTITCRASENIYSFLAWYQQKPGKAPKLLIYHAKTLAEGVTSRFSGSGSGTDFTLTISSLQPEDSATYYCQHYYGSPLTFGQGTRLEIKR
notes: humanized version of hCD27.15 from WO2012/004367 with identical CDR regions; also called hCD27.15 (humanized 6B); hCD27.15 6B humanized antibody
Question: With B1 as the binder, how does the “% of WT hCD27 binding (geo mean FITC)” value [1] read?
Answer: Its value is 71.4%.

Question: And the “% of WT hCD27 binding (geo mean FITC)” value [2]?
Answer: Its value is 120%.

Question: What about the “% of WT hCD27 binding (geo mean FITC)” value [3] of the same binder?
Answer: The value was 59.4%.

Question: And the “% of WT hCD27 binding (geo mean FITC)” value [4]?
Answer: The value was 30.3%.

Question: And the “% of WT hCD27 binding (geo mean FITC)” value [5]?
Answer: The value was 68.7%.

Question: What about the “% of WT hCD27 binding (geo mean FITC)” value [6] of the same binder?
Answer: Its value is 81.9%.

Question: And the “% of WT hCD27 binding (geo mean FITC)” value [7]?
Answer: The value was 82.6%.

Question: And the “% of WT hCD27 binding (geo mean FITC)” value [8]?
Answer: Its value is 114%.

Question: And the “% of WT hCD27 binding (geo mean FITC)” value [9]?
Answer: Its value is 97.4%.

Question: What about the “% of WT hCD27 binding (geo mean FITC)” value [10] of the same binder?
Answer: Its value is 58.5%.
